Consider six molecules from US20250101133A1 (CENTRE NATIONAL DE LA RECHERCHE SCIENTIFIQUE, published 2025).

The target in assay [1] is T1, recombinant human NEDP1 protein (human, UniProt Q96LD8 1-212).
T1 construct: also called deNEDDylating enzyme NEDP1; NEDP1 enzyme
T1 sequence (looked up): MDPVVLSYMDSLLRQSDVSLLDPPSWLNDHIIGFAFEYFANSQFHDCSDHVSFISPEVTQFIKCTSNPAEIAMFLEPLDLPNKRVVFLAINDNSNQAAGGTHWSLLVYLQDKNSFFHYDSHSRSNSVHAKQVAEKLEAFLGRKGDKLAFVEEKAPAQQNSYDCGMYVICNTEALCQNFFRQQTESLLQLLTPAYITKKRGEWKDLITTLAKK
Put plainly: SPR and ELISA. As to the method:
(§1) FIGS. 1A-1C: FIG. 1A Table showing the different Nanobodies isolated and their binding specificity towards the immunogen human NEDP1 and ULP-3, the C. elegans homologue of NEDP1 (−poor/no binding, + indicates binding affinity/specificity). FIG. 1B ELISA test, showing the binding of indicated Nanobodies (300 ng) against increasing amounts of coated recombinant human NEDP1. FIG. 1C Table showing the SPR (Surface Plasmon Resonance) analysis and binding affinities for indicated Nanobodies against human NEDP1.
(§2) Nbs affinities for NEDP1 were determined on a Biacore 2000 apparatus (Biacore AB, Uppsala, Sweden). Nanobodies (355 nM) were immobilized on anti-His6 antibody covalently immobilized on a carboxymethyl dextran sensorchip (CM5 Biacore AB) using the amine coupling method according to the manufacturer's instructions. The immobilization level was 500 resonance units (RU). Different concentrations of NEDP1 ranging from 0.75 to 200 nM in HEPES-buffered saline (0.01 M HEPES, pH 7.4, 0.15 M NaCl, 3 mM EDTA, 0.005% surfactant P20) were injected and exposed to the Nb. All sensorgrams were fitted by subtracting the signal from the reference flow cell and were treated using BIA evaluation version 3.2 software (Biacore AB).
A general note: ELISA stands for enzyme-linked immunosorbent assay.

For assay [2], the target named is T1, recombinant human NEDP1 protein. Put plainly: SPR. The method, then: as §1, §2
On the technique in general: Surface plasmon resonance follows binding to a sensor surface in real time, without labels.

Assay [3] addresses T2, endogenous NEDP1 in U2OS cell extracts (human, UniProt Q96LD8 1-212).
T2 construct: Untagged native protein, co-immunoprecipitated from cell lysate
T2 sequence (looked up): T1 sequence (looked up)
As to the kind of experiment: anti-Flag immunoprecipitation from U2OS cell extracts, western blot with anti-NEDP1. As to the method: FIGS. 4A-4B: FIG. 4A Extracts from empty pcDNA3 vector (vect.) or stably expressing Nanobody 2/Nanobody 9-Flag (AbR2DP12/AbR2DP46) U2OS cells were used for anti-Flag immunoprecipitations. Total cell extracts (input) and eluates were used for western blot analysis with the indicated antibodies. FIG. 4B U2OS cells described above were lysed in 2×SDS buffer and extracts were analysed by western blotting with the indicated antibodies.
U2OS cells either with empty pcDNA3 vector or stably expressing Nb2/Nb9-Flag constructs were lysed in 50 mM Tris-HCl, pH 7.4, 100 mM KCl, 1% NP-40, 2 mM EDTA, protease inhibitors (complete EDTA-free, Roche) for 15 min on ice. After centrifugation at 13000 rpm for 15 min at 4° C. extracts were used for immunoprecipitations overnight at 4° C. with 20 μl of pre-washed Flag beads. Next day beads were washed 3× with 500 μl of lysis buffer, resuspended in 50 μl of 2×SDS Laemmli buffer and boiled for 5 min. Eluates were analysed by western blotting.
For orientation: In western blotting, separated proteins are transferred to a membrane and probed.

B1: AbR2DP47, purified His6-tagged nanobody (VHH)
VHH: QVQLQESGGGLVEPGGSLRLSCAASGSISSINVMAWYRQAPGKQRESVAAISSFGITTYSETVKGRFTASRDNAKNTMYLQMNNLKPEDTAVYYCKGPNTDWGQGTQVTVSS
notes: Llama VHH, recloned into pHEN6 and purified from E. coli periplasm as a His6-tagged protein; also called Nb10; Nanobody 10; not shown: His6 tag from vector pHEN6
On to B1, for which the binding result in assay [1] is given as “binds”.

B2: AbR2DP35, purified His6-tagged nanobody (VHH)
VHH: QVQLQESGGGLVQPGGSLTLSCAASGVMFSTGVMGWYRQAPGKQREAVAAITSGGLTTYKDSVKGRFAISRDNTKSTGYLQMNRLRPEDTAVYYCNVRGYWGQGTQVTVSS
notes: Llama VHH, purified as a His6-tagged protein; also called Nb7; Nanobody 7; not shown: His6 tag from vector pHEN6
Turning to B2, the binding result in assay [2] was “binds”.

B3: AbR2DP46, purified His6-tagged nanobody (VHH)
VHH: QVQLQESGGGLVQAGGSLRLSCAASGSPFSIGTMAWYRQAPGNQRASVAAITRGGATTYANSVKGRFTVSRDNAKNTVYLQMNSLKPEDTAAYYCSVWAGDRAYWGQGTQVTVSS
notes: Llama VHH, recloned into pHEN6 and purified from E. coli periplasm as a His6-tagged protein; also called Nb9; Nanobody 9; not shown: His6 tag from vector pHEN6
For the molecule B3, in assay [1], the binding result is “binds”.

B4: Nb9-Flag (AbR2DP46 with Flag tag, stably expressed in U2OS cells) (VHH)
VHH: B3 VHH
notes: Expressed inside U2OS cells from a pcDNA3 construct; also called Nanobody 9-Flag; AbR2DP46-Flag; not shown: Flag tag
In the case of B4, in assay [3], the binding result is recorded as “binds”.

B5: AbR2DP12, purified His6-tagged nanobody (VHH)
VHH: QVQLQESGGGLVQAGGSLRLSCAASGSTSSFNVMAWYHQAPGKQRESVASITSGGITVYRDSVKGRFAISSDNAKNTVFLQMNSLKPEDTGVYYCGGVVDGRVYRGQGTQVTVSS
notes: Llama VHH, recloned into pHEN6 and purified from E. coli periplasm as a His6-tagged protein; also called Nb2; Nanobody 2; not shown: His6 tag from vector pHEN6
As to B5, in assay [1], the binding result is reported as “binds”.

B6: Nb2-Flag (AbR2DP12 with Flag tag, stably expressed in U2OS cells) (VHH)
VHH: B5 VHH
notes: Expressed inside U2OS cells from a pcDNA3 construct; also called Nanobody 2-Flag; AbR2DP12-Flag; not shown: Flag tag
Regarding B6, the binding result in assay [3] is recorded as “binds”.
